Measured values published in PMC7156110, “The MAPK substrate MASS proteins regulate stomatal development in Arabidopsis” (PLoS Genetics, 2020).

Target: T1, MBP-YDA (recombinant YODA) (Arabidopsis thaliana, UniProt Q9CAD5 1-883)
T1 construct: MAPKK kinase YODA (YDA, AT1G63700), Arabidopsis thaliana; also called MBP-tagged YDA; source: E. coli BL21 (DE3), purified (Amylose Resin)
T1 sequence (looked up): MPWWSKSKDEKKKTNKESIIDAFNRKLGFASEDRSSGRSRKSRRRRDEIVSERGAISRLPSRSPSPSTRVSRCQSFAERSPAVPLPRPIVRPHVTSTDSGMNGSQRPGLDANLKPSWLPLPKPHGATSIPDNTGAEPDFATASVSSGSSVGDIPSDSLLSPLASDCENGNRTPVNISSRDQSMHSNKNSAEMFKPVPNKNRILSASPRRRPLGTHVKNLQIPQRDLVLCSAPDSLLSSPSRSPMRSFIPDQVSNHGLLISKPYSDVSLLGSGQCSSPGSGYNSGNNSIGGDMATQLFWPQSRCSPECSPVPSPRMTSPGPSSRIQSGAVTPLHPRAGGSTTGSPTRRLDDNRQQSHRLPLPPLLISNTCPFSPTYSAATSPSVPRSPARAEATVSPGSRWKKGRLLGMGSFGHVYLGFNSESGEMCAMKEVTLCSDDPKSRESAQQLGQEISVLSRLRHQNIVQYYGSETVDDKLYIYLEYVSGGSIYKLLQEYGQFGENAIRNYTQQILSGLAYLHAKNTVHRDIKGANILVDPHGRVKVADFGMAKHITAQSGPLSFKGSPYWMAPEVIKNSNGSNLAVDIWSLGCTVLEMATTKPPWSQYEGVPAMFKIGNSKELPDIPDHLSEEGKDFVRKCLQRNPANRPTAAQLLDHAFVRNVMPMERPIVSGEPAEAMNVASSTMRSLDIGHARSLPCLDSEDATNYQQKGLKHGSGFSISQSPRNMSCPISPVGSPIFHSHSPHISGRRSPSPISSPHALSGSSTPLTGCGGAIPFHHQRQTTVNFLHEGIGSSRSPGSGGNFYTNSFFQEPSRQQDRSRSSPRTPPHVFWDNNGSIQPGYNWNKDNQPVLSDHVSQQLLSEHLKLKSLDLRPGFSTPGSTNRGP
Test: pull-down; MBP-YDA held on Amylose Resin, incubated with His-MASS2 at 4°C for 2 h; washing buffer 50 mM Tris-HCl pH 7.5, 10 mM MgCl2, 150 mM NaCl, 1 mM DTT; blots with anti-His and anti-MBP
Conditions: both partners purified

B1: His-MASS2.3 (MASS2 splicing variant 3, recombinant) (natural protein, Arabidopsis thaliana, UniProt Q9XI29 1-148, looked up)
chain: MEGLQRSTISFRRQGSSGIVFDDRLIAELNKSGNNEQKDESQRDEQPKPMSESSEQVKPIDEKDKLRPIKTGGGAPGGIERSRSNGGGAQRHHRTTGRVSPAVDPPSPRISSCGCCSAFGKNPPGKKVNPRKRPPKRRSRRRIVTKKR
notes: source: E. coli BL21 (DE3), purified (Ni-NTA agarose)
- binding result: binds
